# Measured values: publication PMC5960627
# Where two headings read alike, the source gives them in different places.
# Tests used:
# Experiment in all cases: other fluorescence titration
# [1] = molecular target: BSAT1R_(125-141), FRET biosensor with AT1R a.a. 125-141 (SMD2) between EYFPc and ECFP (human)
# [2] = molecular target: BSAT1R_(125-141mut), FRET biosensor with mutant AT1R a.a. 125-141 (SMD2) between EYFPc and ECFP (human)
# [3] = molecular target: BSAT1R_(215-232), FRET biosensor with AT1R a.a. 215-232 (part of SMD3) between EYFPc and ECFP (human)
# [4] = molecular target: BSAT1R_(215-242), FRET biosensor with AT1R a.a. 215-242 (entire SMD3) between EYFPc and ECFP (human)
# BSAT1R_(215-242), FRET biosensor with AT1R a.a. 215-242 (entire SMD3) between EYFPc and ECFP (human), sequence (P30556 215-242): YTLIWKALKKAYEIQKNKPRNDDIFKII
# [5] = molecular target: BSAT1R_(215-242mut), FRET biosensor with mutant AT1R a.a. 215-242 (SMD3) between EYFPc and ECFP (human)
# [6] = molecular target: BSAT1R_(309-327), FRET biosensor with AT1R a.a. 309-327 (SMD4JM) between EYFPc and ECFP (human)
# [7] = molecular target: BSAT1R_(309-327mut), FRET biosensor with mutant AT1R a.a. 309-327 (SMD4JM) between EYFPc and ECFP (human)
# [8] = molecular target: BSAT1R_(309-327), FRET biosensor with AT1R a.a. 309-327 (SMD4JM) between EYFPc and ECFP (human); remark: listed apart in the source
substance,measurement,setting,value
Calmodulin (from UniProt P0DP23 1-149) (natural protein),EC50(Ca2+) of the interaction,[1],4100 nM
same,EC50(Ca2+) of the interaction,[2],17600 nM
same,EC50(Ca2+) of the interaction,[3],300 nM
same,EC50(Ca2+) of the interaction,[4],150 nM
same,EC50(Ca2+) of the interaction,[5],1490 nM
same,"EC50(Ca2+) of the interaction, species Sp1",[6],310 nM
same,"EC50(Ca2+) of the interaction, species Sp2",[6],3170 nM
same,"EC50(Ca2+) of the interaction, species Sp1mut",[7],770 nM
same,"EC50(Ca2+) of the interaction, species Sp2mut",[7],9600 nM
same,"EC50(Ca2+) of the interaction, species Sp2",[8],3180 nM
